{"source": "patent US20190055510A1", "about": "“WELL PLATE-BASED PERFUSION CULTURE MODEL OF ENDOSTEAL-EXTRACELLULAR MATRIX (ECM)-AND ENDOTHELIAL-MYELOMA INTERACTIONS AND METHODS FOR TESTING PERSONALIZED THERAPEUTICS FOR MULTIPLE MYELOMA” (Hackensack University Medical Center, priority 2016, published 2019)", "molecules": {"B1": {"name": "parathyroid hormone (protein, UniProt P01270 32-115, looked up)", "Parathyroid hormone": "SVSEIQLMHNLGKHLNSMERVEWLRKKLQDVHNFVALGAPLAPRDAGSQRPRKKEDNVLVESHEKSLGEADKADVNVLTKAKSQ", "modifications": "Parathyroid hormone", "notes": "parathyroid hormone, known to induce OSTs to increase RANKL and decrease OPG and SOST gene expression"}}, "assay_type_in_all_cases": "cell-based, human", "key": {"CD138+ PMMCs [1]": {"tested_on": "CD138+ PMMCs", "experiment": "Drug response of CD138+ PMMCs co-cultured with osteoblast (OSB) tissue in 96-well plate-based perfusion culture, viability by flow cytometry", "conditions": "cultured with OSBs", "description": "Using the 96-well plate-based culture platform described in Example 2, osteoblasts (OSBs) (hFOB 1.19 cell line) were cultured for 4 days at 20% O2 tension to form an ossified tissue structure. Patient bone marrow mononuclear cells (BMMCs) containing PMMCs, were seeded on the ossified tissue structure and cultured for up to 5 weeks. […] When O2 tension was decreased to 1%, the proliferation rate of PMMCs decreased (FIG. 2C) while their viability was not compromised (data not shown). […] PMMCs also acquired cell adhesion mediated drug resistance (CAM-DR) due to the adhesive interactions with OSBs.\nThe response of PMMCs to two commonly used drugs to treat MM patients: (1) carfilzomib, a proteasome inhibitor; and (2) melphalan, which is often used to treat newly diagnosed MM patients along with stem-cell transplantation, was evaluated. OSB tissue was cultured for 4 days either at 1 or 20% O2 prior to seeding of PMMCs. After seeding, PMMC-OSB cultures were dosed with either carfilizomib or melphalan. After 24 h, flow cytometry was used to analyze the viability of CD138+PMMCs. […] Dual Inhibition Of Mcl-1 By The Combination Of Carfilzomib and TG02 In Multiple Myeloma, (2013)). […] British journal of haematology 152, 579-592, doi:10.1111/j.1365-2141.2010.08533.x. (2011); Xiang, Y. et al. Monitoring a Nuclear Factor-κB Signature of Drug Resistance in Multiple Myeloma. […]"}, "CD138+ PMMCs [2]": {"tested_on": "CD138+ PMMCs", "experiment": "Drug response of CD138+ PMMCs cultured in fibrin", "conditions": "in contrast to culture with OSBs (FIG. 3B)", "description": "The response of PMMCs to two commonly used drugs to treat MM patients: (1) carfilzomib, a proteasome inhibitor; and (2) melphalan, which is often used to treat newly diagnosed MM patients along with stem-cell transplantation, was evaluated. OSB tissue was cultured for 4 days either at 1 or 20% O2 prior to seeding of PMMCs. After seeding, PMMC-OSB cultures were dosed with either carfilizomib or melphalan. After 24 h, flow cytometry was used to analyze the viability of CD138+PMMCs. […] Dual Inhibition Of Mcl-1 By The Combination Of Carfilzomib and TG02 In Multiple Myeloma, (2013)). […] British journal of haematology 152, 579-592, doi:10.1111/j.1365-2141.2010.08533.x. (2011); Xiang, Y. et al. Monitoring a Nuclear Factor-κB Signature of Drug Resistance in Multiple Myeloma. Molecular & Cellular Proteomics 10, doi:10.1074/mcp.M110.005520 (2011)).\nIn this study, fibrin was used to reconstruct extracellular matrix (ECM) niche tissue containing patient bone marrow mononuclear cells (BMMCs). […]"}, "3D-osteocytes (OSTs)": {"tested_on": "3D-osteocytes (OSTs)", "experiment": "Continuous PTH treatment of 3D-reconstructed osteocytes, relative gene expression", "conditions": "50 nM PTH for 2 days, compared to no treatment and 2D-OSTs controls (FIG. 4F)", "source_text": "Cells and biphasic calcium phosphate (BCP) or polystyrene (PS) microbeads in the range of 20-25 μm (i.e, 20 μm, 21 μm, 22 μm, 23 μm, 24 μm and 25 μm) in diameter were assembled into the culture chamber, via forced liquid withdrawal through the PC membrane, to form a close-packed structure (FIG. 1). […] The cells entrapped within the interstitial spaces between the microbeads formed a 3D cellular network by extending and connecting their processes through openings between the microbeads over 2 weeks. […] The observed O2 tension effects are similar to those reported on the osteocytic differentiation of OSBs (Hirao, M. et al. Oxygen tension is an important mediator of the transformation of osteoblasts to osteocytes. Journal of bone and mineral metabolism 25, 266-276, doi:10.1007/s00774-007-0765-9 (2007); Chen, D. et al. HIF-1alpha inhibits Wnt signaling pathway by activating Sost expression in osteoblasts. PloS one 8, e65940, doi:10.1371/journal.pone.0065940 (2013); Clinkenbeard, E. L. et al. Neonatal iron deficiency causes abnormal phosphate metabolism by elevating FGF23 in normal and ADHR mice. Journal of bone and mineral research: the official journal of the American Society for Bone and Mineral Research 29, 361-369, doi:10.1002/jbmr.2049 (2014)).\nIn order to characterize the regulatory functions of 3D-osteocytes (OSTs) on osteoclastogenesis and osteoblastic development, the effects of continuous parathyroid hormone (PTH) treatment was evaluated."}}}
{"molecule": "CC(C)C[C@H](NC(=O)[C@H](CCc1ccccc1)NC(=O)CN1CCOCC1)C(=O)N[C@@H](Cc1ccccc1)C(=O)N[C@@H](CC(C)C)C(=O)[C@@]1(C)CO1", "note": "[carfilzomib]", "values": [{"measurement": "response (viability) of CD138+ PMMCs to carfilzomib", "setting": "CD138+ PMMCs [1]; 100 nM carfilzomib, 20% O2, 24 h, flow cytometry (FIG. 3A)", "value": "significant resistance"}]}
{"molecule": "N[C@@H](Cc1ccc(N(CCCl)CCCl)cc1)C(=O)O", "note": "[melphalan]", "values": [{"measurement": "response (viability) of CD138+ PMMCs to melphalan", "setting": "CD138+ PMMCs [1]; 100 μM melphalan, both 1 and 20% O2, 24 h, flow cytometry (FIG. 3B)", "value": "highly resistant"}, {"measurement": "sensitivity of CD138+ PMMCs to melphalan", "setting": "CD138+ PMMCs [2]", "value": "significantly more sensitive"}]}
{"molecule": "B1", "values": [{"measurement": "FGF23 gene expression", "setting": "3D-osteocytes (OSTs)", "value": "decreased"}, {"measurement": "OPG gene expression", "setting": "3D-osteocytes (OSTs)", "value": "decreased"}, {"measurement": "RANKL gene expression", "setting": "3D-osteocytes (OSTs)", "value": "increased"}, {"measurement": "SOST gene expression", "setting": "3D-osteocytes (OSTs)", "value": "decreased"}]}
